For the experiment, the target named is T1, full-length human MICAL1 (human) (UniProt Q8TDZ2).
T1 sequence: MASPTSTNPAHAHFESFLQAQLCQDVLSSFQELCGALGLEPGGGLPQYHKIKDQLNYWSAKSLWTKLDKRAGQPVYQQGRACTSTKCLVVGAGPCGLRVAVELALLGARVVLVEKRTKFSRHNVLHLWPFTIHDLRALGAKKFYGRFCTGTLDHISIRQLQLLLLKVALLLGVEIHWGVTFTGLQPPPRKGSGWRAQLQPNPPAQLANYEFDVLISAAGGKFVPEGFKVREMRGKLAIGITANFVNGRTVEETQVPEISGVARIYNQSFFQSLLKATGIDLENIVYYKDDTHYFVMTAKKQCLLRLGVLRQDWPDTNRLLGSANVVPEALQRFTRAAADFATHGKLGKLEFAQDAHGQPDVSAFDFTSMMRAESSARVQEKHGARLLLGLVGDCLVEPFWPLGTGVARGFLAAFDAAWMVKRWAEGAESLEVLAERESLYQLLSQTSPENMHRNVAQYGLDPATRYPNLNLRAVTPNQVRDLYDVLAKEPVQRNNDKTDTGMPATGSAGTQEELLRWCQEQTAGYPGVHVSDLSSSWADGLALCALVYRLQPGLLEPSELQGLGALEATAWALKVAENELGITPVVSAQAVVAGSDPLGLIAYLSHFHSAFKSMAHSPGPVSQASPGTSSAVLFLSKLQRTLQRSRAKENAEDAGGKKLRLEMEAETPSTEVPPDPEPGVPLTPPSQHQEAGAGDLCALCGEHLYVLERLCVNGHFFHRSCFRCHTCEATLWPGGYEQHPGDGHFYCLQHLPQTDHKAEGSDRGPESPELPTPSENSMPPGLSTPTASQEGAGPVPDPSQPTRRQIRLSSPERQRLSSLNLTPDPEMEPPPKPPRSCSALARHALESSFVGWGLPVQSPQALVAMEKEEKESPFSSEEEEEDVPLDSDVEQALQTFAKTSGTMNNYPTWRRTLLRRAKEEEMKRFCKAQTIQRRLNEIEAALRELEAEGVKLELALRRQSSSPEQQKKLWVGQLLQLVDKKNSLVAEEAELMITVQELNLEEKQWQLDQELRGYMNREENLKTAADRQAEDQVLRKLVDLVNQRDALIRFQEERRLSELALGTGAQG

With “human Rab8a 1-181 with the constitutively active mutation Q67L (from UniProt P61006 1-181) (domain or fragment)”, the fold enhancement of NADPH turnover of MICAL1 (0.5 μM) on adding Rab8a (40 μM) was determined as 4 fold.

The values are drawn from PMC11315924.
